Reference: IntAct's records for PubMed 18292755

B1: Autoimmune regulator (Homo sapiens), O43918 (parent)
chain: MATDAALRRLLRLHRTEIAVAVDSAFPLLHALADHDVVPEDKFQETLHLKEKEGCPQAFHALLSWLLTQDSTAILDFWRVLFKDYNLERYGRLQPILDSFPKDVDLSQPRKGRKPPAVPKALVPPPRLPTKRKASEEARAAAPAALTPRGTASPGSQLKAKPPKKPESSAEQQRLPLGNGIQTMSASVQRAVAMSSGDVPGARGAVEGILIQQVFESGGSKKCIQVGGEFYTPSKFEDSGSGKNKARSSSGPKPLVRAKGAQGAAPGGGEARLGQQGSVPAPLALPSDPQLHQKNEDECAVCRDGGELICCDGCPRAFHLACLSPPLREIPSGTWRCSSCLQATVQEVQPRAEEPRPQEPPVETPLPPGLRSAGEEVRGPPGEPLAGMDTTLVYKHLPAPPSAAPLPGLDSSALHPLLCVGPEGQQNLAPGARCGVCGDGTDVLRCTHCAAAFHWRCHFPAGTSRPGTGLRCRSCSGDVTPAPVEGVLAPSPARLAPGPAKDDTASHEPALHRDDLESLLSEHTFDGILQWAIQSMARPAAPFPS

Variants of: B1
Settings: with h31_human H3C1, P68431

Variant | effect of a mutation on the interaction
D297A | disrupting interaction

Variants of: B1
Settings: with h31_human H3C1, P68431
Remark: another data set of the same source

Variant | effect of a mutation on the interaction
D297A | decreasing interaction

Variants of: B1
Settings: with h31_human H3C1, P68431
Remark: another data set of the same source

Variant | effect of a mutation on the interaction
D312A | disrupting interaction

Variants of: B1
Settings: with h31_human H3C1, P68431
Remark: another data set of the same source

Variant | effect of a mutation on the interaction
C311Y | disrupting interaction

Variants of: B1
Settings: with h31_human H3C1, P68431
Remark: another data set of the same source

Variant | effect of a mutation on the interaction
V301M | decreasing interaction
